Measured values reported in US20100325744A1.

What was measured:
2F8-HG (human) [1] = experiment: self-association; non-covalent nano-electrospray mass spectrometry at 0.01-10 µM
2F8-HG (human) [2] = experiment: self-association of HG half-molecules; non-covalent nano-electrospray mass spectrometry

percentage monomeric at low concentrations (2F8-HG (human) [1]): 100%
percentage molecules present as monomers (2F8-HG (human) [2]): 15%
Substance: 2F8-HG (antibody)
